Measured values from the nanobody polyreactivity screen of Harvey et al. (2022).

Assay: yeast display, Sf9 membrane polyspecificity reagent, FACS + sequencing; frameworks hold sequencing errors
How it was run: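 Galactose-induced (36–48 hours) yeast carrying a synthetic nanobody display library were exposed to 10% biotinylated, detergent-solubilized Sf9 membrane reagent at 4 °C for 1 hour. FACS followed streptavidin microbead enrichment, using low and high (top ~1%) gates for expression (anti-HA) and reagent binding (streptavidin). Colony PCR, MiSeq 2 × 250 sequencing and CDR-length filtering followed. Labels for polyreactivity reflect the gate of origin.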

Sequence | polyreactivity (PSR sort gate)
QVQLVESGGGLVQAGGSLRLSCAASGRIFRYYAMGWYRQAPGKERELVASITYSGGRTNYADSVKGRFTISRDNAKNTVYLQMNSLKPEDTAVYYCNSAYVYYYPHYRYAPTAVDYDYWGQGTQVTVSS | low polyreactivity
QVQLVESGGGLVQAGGSLRLSCAASGRIFRYYAMGWYRQAPGKERELVATISSSGGSTYYADSVKGRFTISRDNAKNTVYLQMKSLKPEDTAVYYCAADWYGYRQFHGYYWGQGTQVTVSS | high polyreactivity
QVQLVESGGGLVQAGGSLRLSCAASGRIFRYYAMGWYRQAPGKERELVAVISSSGGSTNYADSVKGRFTISRDNAKNTVYLQMNSLKPEDTAVYYCNAYGAYGGTGDYWGQGTQVTVSS | high polyreactivity
QVQLVESGGGLVQAGGSLRLSCAASGRIFRYYAMGWYRQSPGKEREFVAAINWSGGSTYYADSVKGRITISRDNAKNTVYLQMNSLKREDTAVYYCAALITQSYDYWGQGSQVTVSS | high polyreactivity
QVQLVESGGGLVQAGGSLRLSCAASGRIFRYYDMGWYRPAPGKERELVAAINSGGSTKYADSVKGRFTISRDNAKNTVYLQMNSLKPEDTAVYYCAADKARAWGYDYWGQGTQVTVSS | high polyreactivity
QVQLVESGGGLVQAGGSLRLSCAASGRIFRYYDMGWYRQAPGKEREFVAAITRSGAITYYADSVKGRFTISRDNAKNTVYLQMNSLKPEDTAVYYCAARYWSKFGYWGQGTQVTVSS | low polyreactivity
QVQLVESGGGLVQAGGSLRLSCAASGRIFRYYTMGWYRPAPGKERELVAAISWTGASTYYADSVKGRFTISRDNAKNTVYLQMNSLKPEDTAVYYCAADSYIAHHGFAMDYWGQGTQVTVSS | low polyreactivity
QVQLVESGGGLVQAGGSLRLSCAASGRIFRYYVMGWYRQAPGKEREFVASISGRGASTYYADSVKGRFTISRDNAKNTVYLQMNSLKPEDTAVYYCNADVWLLSYFPEYDYWGQGTQVTVSS | low polyreactivity
QVQLVESGGGLVQAGGSLRLSCAASGRIFRYYVMGWYRQAPGKERELVAAISRSGGTTYYADSVKGRFTISRDNAKNTVYLQMNSLKPEDTAVYYCAAVYGRDPGDYWGQGTQVTVSS | high polyreactivity
QVQLVESGGGLVQAGGSLRLSCAASGRIFRYYVMGWYRQAPGKERELVASITRVGRTNYADSVKGRFTISRDNAKNTVYLQMNSLKPEDTAFYYCAADVWWSTYRVTDDYWGQGTQVTVSS | high polyreactivity
QVQLVESGGGLVQAGGSLRLSCAASGRIFSAYTMGWYRQAPGKERELVAAITWSGGTTYYADSVKGRFTISRDNAKNTVYLQINSLKPEDTAVYYCAAESSWYVLYGSYYRSGLEYWGQGTLVTVSS | low polyreactivity
QVQLVESGGGLVQAGGSLRLSCAASGRIFSEYAMGWYRQAPGKERELVASISTSGGSTYYADSVKGRFTISRDNAKNTVYLQMNSLKPEDTAVYYCNVAYSRYPSYTYGYDHWGQGTQVTVSS | high polyreactivity
QVQLVESGGGLVQAGGSLRLSCAASGRIFSFNAMGCYRQATGKERELVAAISWSTGSTFYADSVKGRFTISRDYAKNTVFLQMNSLKPEDTAVYYCAREYYYRRGFFLRGYWGQGTQVTVSS | high polyreactivity
QVQLVESGGGLVQAGGSLRLSCAASGRIFSFNGMGWYRQAPGKERELVAAITSSGGRTYYADSVKGRFTISRDNAKNTVYLQMNSLKPEDTAVYYCAAELAWEYYWGQGTQVTVSS | low polyreactivity
QVQLVESGGGLVQAGGSLRLSCAASGRIFSFYAMGWYRQAPGKERELVATISDGGATTYYADSVKGRFTISRDNAKNTVYLQMNSLKPEDTAVYYCAADKRGRPGLPDYDSWGQGTQVTVSS | low polyreactivity
QVQLVESGGGLVQAGGSLRLSCAASGRIFSGNAMGWYRQAPGKERELVAAISGSGGSTYYADSVKGRFTISRDNAKNTVYLQMNSLKPEDTAVYYCADRYTVRRSGYWGQGTQVTVSS | high polyreactivity
QVQLVESGGGLVQAGGSLRLSCAASGRIFSGNAMGWYRQAPGKERELVAAISRGGSTDYADSVKGRFTISRDNAKNTVYLQMNSLKPEDTAVYYCAARVNGKRRRYDYWGQGTQVTVSS | high polyreactivity
